Experimental data: the nanobody polyreactivity screen of Harvey et al. (2022)

Assay: yeast display, Sf9 membrane polyspecificity reagent, FACS + sequencing; frameworks hold sequencing errors
How it was run: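 Synthetic nanobody libraries on Saccharomyces cerevisiae BJ5465 were galactose-induced for 36–48 hours, stained 1 hour at 4 °C with 10% biotinylated, detergent-solubilized Sf9 membrane reagent and enriched on streptavidin microbeads. FACS then separated cells into low and high (top ~1%) gates by anti-HA (expression) and streptavidin (reagent binding) fluorescence. Genes were colony-PCR amplified, MiSeq 2 × 250 sequenced and CDR-length filtered. A clone's polyreactivity label is that of its gate of origin.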

Sequence	polyreactivity (PSR sort gate)
QVQLVESGGGLVQAGGSLRLSCAASGFTFARYTMGWYRQEPGKERELVAAISSRGSSTYYADSVKGRFTISRDNAKNTVYLQMNSLKPEDTAVYYCAAPPRYGYDYWGQGTQVTVSS	high polyreactivity
QVHLVESGGGLDQAGGSLRLSCAASASIFELYAMGWYRQAPGKERELVAVISTGGSTYYADSVKGRFTISRDNAKNTVYLQMNSLKPEDTAVYYCAKGGYVPKLEYWGQGTQVTVSS	high polyreactivity
QVQLVESGGGLVQAGGSLRLSSAASGRTLVNYAMGCYRQAPGKERELVAAISYSGGSTYYADSVKGRFTISRDYAKNTVYLQMNSLKPEDTAVYYCAAYYYQRYDYWGQGTQVTVSS	high polyreactivity
QVQLVESGGGLVQAGGSLRLSCAASGFIFSRYGMGWYRQAPGKERELVAAISRTGGSTYYADSVKGRFTISRDNAKNTVYFQMNSLKPEDTAVYYCATAYSWRNADWFAYSYDYWGQGTQVTVSS	low polyreactivity
QVQLVESGGGLVQAGGSLRLSCAASGIIFRANAMGWYRQAPGKERELVAAISRRGGSTYYADSVKGRFTISRDNAKNTVFLQMNSLKPEDTAVYYCAADGKNYPVGYDYWGQGTQVTVSS	high polyreactivity
QVQLVESGGGLVQAGGSLRLSFAASGSTFWLYPMGWYRQATAKDREFVATISSSTTYYADSVKGRFTISRDNAKNTVYLQMNCLKAEDTEVYYCAKQHGLTSGGSRTDYWGQGTQGTVSS	low polyreactivity
QVQLVESGGGLVQAGGSLRLSCAASGSTFNYYAMGWNRQAPVKERELVATISWSGDSTYADSVKGRFTISRDNAKNTVYLQMHSLKPEDTAVYYCATSGDWWCFRYDYWGQGTQVTVSS	low polyreactivity
QVQLVESGGGLVQAGGSLRLSCAASGFIFSYNAMGWYRQAPGKERELVAAISSSGGTTYYADSVKGRFTISRDKAKNTVYLQMNSLKPEDTAVYYCNKTTHSRTFRYDYWAQGTQVTVSS	low polyreactivity
QVQLVESGGGLVQAGGSLRLICAASGSTFDLYAMGWYRQAPGKESELVAAITRCGSTYYADSVKGRFTISRDNAKNTVYLQMNSLKPEDTAVYYCAASRYYNTVHNGGDYWGQGTQVTLSS	high polyreactivity
QVQLVESGGGLVQAGGSLRLSCAASGIIFPFYAMGWYRQAPGKERELVAAITSGDDTYYADSVKGRFTISRDNAKNTVYLQMNSLKPEDTAVYYCNKRLYIAGYWPQLYYIMDYWGQGTQVTVSS	low polyreactivity
QVQLVESGGGLVQAGGSLRLSCAASGRTFRYYAMGWYRQAPGKERELVAAISWDGARSYYADSVKGRFTISRDNAKNTVYLQMNSLKPEDTAVYYCAADFPGGTDRYYPMDYWGQGTQVTVSS	low polyreactivity
QVQLVESGGGLVLAGGSLRLSCAASGRIFRGYAMGWYRQAPGKERELVAGITWGAGRTYYADSVKGRFTISRDNAKNTVYLQMNSLKPEDTAVYYCAAYYSQDSRRKYDYWGQGTQVSVSS	high polyreactivity
QVQLVESGGGLVQAGGSLRLSCAASGSILAYNAMGWYRQAPGKEREFVAAITGGVGSTYYADSVKGRFTISRDNAKNTVYLQMNSLKPEDTAVYYCAKRTYHEYNNQFVKYYYWGQGTQVTVSS	high polyreactivity
QVQLVESGGGLVQAGGSLRLSCAASGLIFYYYAMGWYRQAPGKEREFVAAISRSGGITRYADSVKGRFTISRDNAKNTVYLQMNSLKPEDTAVYYCAADAYPLTYDDYYWGQGTKVTVSS	high polyreactivity
QVQLVESRGRLLQAGGSLRLSCAASGRISHINAMGCSIQAPGKERELVAGIRGRGGSTYYADSVKGRFTISRDNAKNSVYLQMNSLKPEDTEVYYCAARGWELIRTDPFDYWGQGSQVTVSS	high polyreactivity
QVQLVESVGGLVQAGGSLRISCAASGSTFPWYAMGWYRQAPGKERELVASITSGTTTNYADSVKGRFTISRDNAKNTVYLQRNSLKPEDTADYYCAASWVYQYDYWGQGTQVSVSS	low polyreactivity
QIQLVESGGGLDQAGGSLRISCAASAYTYVDYIGCYIPAPGKERELVADIDNSGGGTYYADSVTGRFTISRDNAKNTVYFLMNSLKAEDTAVYYCAAEFPYDDYYSNRDYDYWGQGTQVTVSS	low polyreactivity
QVQLVESGGGLVQAGGSLRLSCAASGNTFTFNAMGWYRQAPGKERELVAAINRGDSTNYADSVKGRFTISRDNAKNTVYLQMNSLKPEDTAVYYCAAGTLYWNYNRYDLYYYWGQGTQVTVSS	high polyreactivity
QVQLVESGGGLVQAGGSLRLSCAASGSIFGRYAMGWYRQAPGKERELVANITSGDSTNYADSVKGRFTISRDNAKNTVYLQMNSRKPEDTAVYYCAAYRIGQYDYWGQGTQVTVSS	high polyreactivity
QVQLVESGGGLVQAGGSLRLSCAASGFIFRSNAMGLYRQAPGKEREFVAAISSRGGSTTYEDSVKGRFTISRDNAKNTVYLQMNSLKPEDTAVYYCARDWYYYPQYRQRYYYWGQGTQVTVSS	high polyreactivity
QVQLVESGGGLVQAGGSLRLSCAASGITFYFNAIGWYRQAPGKDRELVAAIAWPGGSTYYADSVKGRFTISRDNAKHTVFLQMNSLKPEDTAVYYCNGVFRYWYADSWFGAYDYWGQGTQVTVSS	high polyreactivity
QVQLVESGGGLVQAGGSLRLSCAASGSIFYHNAMGWYRRAPGKEREFVAAITGSGGSTYYADSVKGRFTISRDNAKNTVYLQMNSLKPEDTAVYYCASVGYTKWWISWGYDYWGQGTQVTVSS	low polyreactivity

Sequence	polyreactivity (PSR sort gate)
QVQLVESGGGLVQAGGSLRLSCAASGLTFYSYAMGWYRQAPGKERELVAAITISGGSTYADSVKGRFTISRDNAKNTVYLQMNSLKPEDTAVYYCAVDDFRNPDYDSWGQGTQVTVSS	low polyreactivity
QVQLVESGGGLVQAGGSLRLSCAASGFIYARYAMGWYRQAPGKERELVAGISGGGGRTYYADSVKGRFTISRDNAKNTVYLQMNSLKPEDTAVYYCAATPQSRDRRFNYWGQGTQVTVSS	high polyreactivity
QVQLVESGGGLVQAGGSLRLSCAASGITFSRYAMGWYRQAPGKERELVAAITWDGGRTYYADSVKGRFTISRDNAKNTVYLQMNSLKPEDTAVYYCAAGSAWWYYWGQGTQVTVSS	high polyreactivity
QVQLVESGGGLVQAGGSLRLSCAASGSIFRDYVMGWYRQAPGKERELVAAISGNDGSTYYADSVKGRFTISRDNAKNTVYLQMNSLKPEDTAVYYCNADEASTVPLFYSYLDFDYWGQGTQVTVSS	low polyreactivity
QVQLVESGGGLVQAGGSLRLSCAASGRSFRYNTMGWYRQAPGKERELVAAITKGAATTYYADSVKGRFTISRDNAKNTVYLKMTSLKPEDTAVYYCNAVYSRIVTQKYWGQGTQVTVSS	high polyreactivity
QVQLVESGGGLVQAGGSLRLSCAASGFTFYVNAMGWYRQAPGKERELVAAISSSGTRTYYADSVKGRFTISRDNAKNTVYLQMNSLKPEDTAVYYCAARGQAYSGDRMYYWGQGTQVTVSS	high polyreactivity
QVQLVESGGGLVQAGGSLRLSCAASGRTFDRYAMGWYRQAPGKERELVAAISSGGSTYYADSVKGRFTISRDNAKNTVYLQMNSLKPEDTAVYYCAAGESGSFFIYYYWGQGTQVTVSS	low polyreactivity
QVQLVESGGGLVPAGGSLRLSWAASGRTFTRNAMGWYRQAPGKERELVAVITSSGRTNYADSVKGRVTISRDNAKNTVYLQMNSLKPEDTAVYYCNKVSARYPYPLYDYWGQGTQVTVSS	high polyreactivity
QVQLVESGGGLVQAGGSLRLSCAASGNTLAANAMGWYRQAPGKERELVAAITYSGGSTYYADSVKGRFTISRDNAKNTVYLQMSSLKPEDTAVYDCNAPYVFSAGFDYWGQGTQVTVSS	low polyreactivity
QVQLVESGGGLVQAGGSLRLSCAASGSIFYVYAMGWYGQAPGKDRELVASISWGDSSTYYADSVKGRFTISRDTAKNTVYLQMNSLKPEDTAVYYCAADEYRQYALYDYWGQGTQVTVSS	low polyreactivity
QVQLVESGGGLVQAGGSLRLSCAASGFIFPNNAMGWYRQAPGKERELVARISYGGGDTHYADSVKGRFTISRDNAKNTVYLERNSLKPEDTAVYYCAVKDGQDDYWGQGTQVTVSS	low polyreactivity
QVQLVESGGGLVQAGGSLRLSCAASGSIFSGYDMGWYRQAPGNERELVAVISWSTTSTYYADSVKGRFTISRDNAKNTVYLQMNSLKPEDTAVYYCNAEAYQYWEFDYWGQGSQVTVSS	low polyreactivity
QVQLLESGGGLVQAGGSLRLSCAASGNTFYPNAMGWYRPAPGKETELVAAISSSGGSTYYADSVKGRFTISRDNAKNTVYLQMKSLNPEDTAVYYCASEFDYPLSGEYYYWGKGTQVTVSS	high polyreactivity
QVQLVESGGGLVQAGGSLRLSCAASGGIFLPNAMGWYRQAPGKERELVAAISTGGSTNYADSVKGRFTISRDTAKNTVYLQMNSLKPEDTAVYYCAATPYNYVGFSRGGDYWGQGTQVTVSS	low polyreactivity
QVQLVESGGGLVQAGGSLRLSCAASGSIFGYYAMGWYRQAPGTERELVATITWGGGSTYADSVKGRFTISRDNAKNTVYLQMNSLKPEDTAVYYCNAGYRYTSAQVTWEYDSWGQGTQVTVSS	low polyreactivity
QVQLVESGGGLFQAGGSLRLSSAASGSIFHPYAMGWYRQAPGKERELVAAISSSTGRTYYADYVKGRFTISRDNAKNTVYLQMNSLKPEDTAVYYCAARKKYSEFDYWGQGTQVTVSS	high polyreactivity
QVQLVESGGGLVQAGGSLRLSSAATGRTFASNAMGWYRQAPGKERELVAAIRYRGDRTSYADSVKGRFTISRDNAKNTVYLQMNSLKPEDTAVYYCAAYYNSHGLDYWGQGTQVNVSS	low polyreactivity
QVQIVESGGGLVQAGGSLRLSCAASGSIFDDYAMGWYRQAPGKERELVAAISSGVSTDYADSVKGRFTISRDNAKNTVYLQMYSLKPEDTAVYYCAADDQYRVTLGYDYWGQGTQVTVSS	low polyreactivity
QVQLVESGGGLVQAGGSLRLSCAASGRIFALYAMGWYRQAPGKERELVATITRSGTNTYYADSVKGRFTISRDNAKNTVYLQMNRLKPEDTAVYYCAAYRFWQRTMGYWGQGTQVTVSS	high polyreactivity
QVQLVESGGGLVQAGGSLRLSCAASGLTYYTYAMGWYRQAPGKERELVAAITASGGRTYYADSVKGRFTISRDNAKNTVYLQMNSLKPEDTAVYYCAADIRGDTYDYWGQGTQVNVSS	high polyreactivity
QVQLVESGGGLVQAGGSLRLSCAASGRIFNIYAMGWYRQAPGKERELVAAISVSGTRTYYADSVKGRFTISRDNAKNTVYLQMNSLKPEDTAVYYCAADSYGGVWTEHMYYWGQGTQVTVSS	low polyreactivity
